Target: MHC class I (framework determinant) on human tumor cells of patient 1C

MAb w6/32 (antibody)
inhibition of lysis of autologous 1C tumor cells in a 4-hour 51Cr release assay: 5 % lysis

From patent US20040058445A1
